Source: publication PMC5388391

B1: Alas2 (Category I, CG), EMSA (dsDNA)
DNA 1: TCTCTCCCACGCCCTGGGCTC
DNA 2: GAGCCCAGGGCGTGGGAGAGA
B2: beta-globin (Hbb promoter, Category II, TG) (dsDNA)
DNA 1: TAGAGCCACACCCTGGTAAG
DNA 2: CTTACCAGGGTGTGGCTCTA
B3: Alas2 variant 3 (AG), EMSA (dsDNA)
DNA 1: TCTCTCCCACTCCCTGGGCTC
DNA 2: GAGCCCAGGGAGTGGGAGAGA
B4: Alas2 variant 1 (CA), EMSA (dsDNA)
DNA 1: TCTCTCCCATGCCCTGGGCTC
DNA 2: GAGCCCAGGGCATGGGAGAGA
B5: Alas2 variant 2 (CT), EMSA (dsDNA)
DNA 1: TCTCTCCCAAGCCCTGGGCTC
DNA 2: GAGCCCAGGGCTTGGGAGAGA
B6: Alas2_fp (CG) (dsDNA)
DNA 1: TTCTCTCCCACGCCCTGGGCTC
DNA 2: GAGCCCAGGGCGTGGGAGAGA
modifications: 5' fluorescein-dT (/5FluorT/) preceding S51, written as T

Tests used:
[1] = biological target: T1, KLF1 zinc finger domain (WT) (mouse (murine), UniProt P46099 243-358); experiment: EMSA
T1 sequence (P46099 243-358): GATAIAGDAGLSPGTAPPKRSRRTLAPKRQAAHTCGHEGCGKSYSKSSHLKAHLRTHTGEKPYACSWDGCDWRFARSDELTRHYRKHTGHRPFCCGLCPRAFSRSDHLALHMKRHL

[2] = biological target: T2, Nan-KLF1 zinc finger domain (mouse (murine), Nan mutant, UniProt P46099 243-358, E321D); experiment: EMSA
T2 sequence (P46099 243-358 E321D): as the sequence (P46099 243-358) above, with E79D counted along it

[3] = biological target: T1, KLF1 zinc finger domain (WT); experiment: fluorescence polarization
[4] = biological target: T2, Nan-KLF1 zinc finger domain; experiment: fluorescence polarization

Row | Binder | binding result [1] | binding result [2] | other results
1 | B1 | binds | binds | 
2 | B2 | binds |  | 
3 | B3 |  | binds | 
4 | B4 |  | binds | 
5 | B5 |  | binds | 
6 | B6 |  |  | Kd [3]: 150 nM; Kd [4]: 130 nM
